This test addresses IstA transposase, wild type, full length (IS5376, Geobacillus stearothermophilus) (Geobacillus stearothermophilus). Briefly: cryo-EM structure; IstA pre-incubated with strand-transfer-complex DNA (3.3:1), then IstB E167Q (5:1 to IstA), 37 °C; 20 mM HEPES pH 7.5, 150 mM NaCl, 5 mM MgCl2, 1 mM ATP, 1 mM DTT; 3.6 Å.

“IstA transposase, wild type, full length (IS5376, Geobacillus stearothermophilus) (enzyme)” returned a stoichiometry N of 4.

A word on the stoichiometry N: it is the number of molecules, sites or subunits per partner or assembly.

The record behind these values is PMC11208146, “Molecular basis for transposase activation by a dedicated AAA+ ATPase” (Nature, 2024).
